In US20180022822A1 (MABIMMUNE DIAGNOSTICS, published 2018):

Legend:
[1] = molecular target: T1, FAP peptide 521-539 with alanine substitution at position 529 (human); test: alanine-mutated linear peptides spotted on nitrocellulose
T1 construct: also called spot 10
T1 peptide: KMILPPQFARSKKYPLLIQ
Procedure: (§1) Binding capacity of the antibodies was tested on these peptides spotted onto a nitrocellulose membrane (JPT Peptide Technologies, Berlin, Germany) and using HRP-conjugated donkey anti-human IgG secondary antibody (Jackson immunoResearch, Newmarket, UK) followed by detection of HRP activity (FIGS. 4A and C). In brief, epitope mapping was performed using scans of overlapping peptides. The entire sequences of FAP were synthesized as a total of 188 linear 15-mer peptides with an 11 amino acid overlap between individual peptides. Those peptides were spotted onto nitrocellulose membranes (JPT Peptide Technologies, Berlin, Germany). The membrane was activated for 5 min in methanol and washed in TBS for 10 min at RT. Non-specific binding sites were blocked for 2 h at RT with Roti®-Block (Carl Roth GmbH+Co. KG, Karlsruhe, Germany). Human antibodies (1 μg/ml) were incubated in Roti®-Block for 3 h at RT. Binding of primary antibody was determined using HRP-conjugated donkey anti-human IgG secondary antibody. Blots were developed and evaluated using ECL and ImageQuant 350 detection (GE Healthcare, Otelfingen, Switzerland).

[2] = molecular target: T2, FAP peptide 521-539 with alanine substitution at position 532 (human); test: as above
T2 construct: also called spot 13
T2 peptide: KMILPPQFDRSAKYPLLIQ
Procedure: as §1

[3] = molecular target: T3, recombinant human Dipeptidyl Peptidase IV (DPPIV) (human, UniProt P27487 29-766, limits assumed); test: sandwich ELISA: F19 coated as capture antibody, homologue titrated, HRP-labelled NI-206.82C2 as detection antibody; no signal means that no F19/antigen/82C2 sandwich formed
T3 construct: Bought active enzyme; also called rhDPPIV; DPP4
Procedure: (§2) The coating solution was removed and the plate was blocked with 40 μL 2% BSA in PBS blocking buffer for 1 h at room temperature and then discarded. 30 uL sample solution was then added. Sample solutions included recombinant human FAP standard (FIG. 17A), human serum at varying dilutions (FIG. 17B), FAP homologues (FIG. 17C), serum samples from healthy patients (FIGS. 18 and 19), serum samples patients with metastatic colorectal cancer (FIG. 18), serum samples from patients with cardiovascular disease (FIG. 19), sodium citrate plasma samples from healthy patients (FIG. 20), and sodium citrate samples from patients with symptomatic carotid atherosclerotic plaques (FIG. 20). Sample solutions were added at a total volume of 30 μL. The plate was washed three times with 40 μL PBS and blotted dry. […] The plate was then washed again three times with 3×PBS and blotted dry. 30 μL TMB (3,3′,5,5′-Tetramethylbenzidine) solution was then added to each well and allowed to develop for 5-10 minutes at room temperature. The reaction was then stopped by the addition of 30 μL 1M H2SO4, and absorbance at 450 nm was read with a plate reader.

[4] = molecular target: T4, recombinant human Dipeptidyl Peptidase 9 (DPP9) (human, UniProt Q86TI2 1-863, limits assumed); test: as above
T4 construct: Bought active enzyme; also called rhDPP9
Procedure: as §2

[5] = molecular target: T5, recombinant human Prolyl Oligopeptidase/Prolyl Endopeptidase (POP/PREP) (human, UniProt P48147 1-710); test: as above
T5 construct: Bought active enzyme; also called rhPOP/PREP; BPS Bioscience 80105
T5 sequence (looked up): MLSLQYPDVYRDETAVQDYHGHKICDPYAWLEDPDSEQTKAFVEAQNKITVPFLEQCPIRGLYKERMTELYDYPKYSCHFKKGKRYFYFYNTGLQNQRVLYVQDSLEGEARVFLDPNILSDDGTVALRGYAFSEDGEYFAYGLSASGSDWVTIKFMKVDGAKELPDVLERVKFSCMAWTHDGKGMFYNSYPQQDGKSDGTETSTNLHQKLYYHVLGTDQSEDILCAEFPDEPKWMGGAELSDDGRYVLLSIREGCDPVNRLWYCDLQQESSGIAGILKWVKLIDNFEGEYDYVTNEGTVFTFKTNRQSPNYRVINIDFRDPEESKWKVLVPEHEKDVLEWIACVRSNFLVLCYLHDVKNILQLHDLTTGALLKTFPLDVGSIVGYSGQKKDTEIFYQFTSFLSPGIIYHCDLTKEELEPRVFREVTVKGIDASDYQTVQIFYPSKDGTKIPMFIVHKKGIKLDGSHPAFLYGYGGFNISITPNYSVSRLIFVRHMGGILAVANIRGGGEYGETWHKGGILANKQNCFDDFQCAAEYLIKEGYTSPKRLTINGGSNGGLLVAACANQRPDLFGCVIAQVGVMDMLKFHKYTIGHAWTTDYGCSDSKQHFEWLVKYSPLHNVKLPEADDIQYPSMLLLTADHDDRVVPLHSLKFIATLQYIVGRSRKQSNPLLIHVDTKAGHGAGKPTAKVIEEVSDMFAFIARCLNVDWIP
Procedure: as §2

T4 sequence (Q86TI2 whole entry): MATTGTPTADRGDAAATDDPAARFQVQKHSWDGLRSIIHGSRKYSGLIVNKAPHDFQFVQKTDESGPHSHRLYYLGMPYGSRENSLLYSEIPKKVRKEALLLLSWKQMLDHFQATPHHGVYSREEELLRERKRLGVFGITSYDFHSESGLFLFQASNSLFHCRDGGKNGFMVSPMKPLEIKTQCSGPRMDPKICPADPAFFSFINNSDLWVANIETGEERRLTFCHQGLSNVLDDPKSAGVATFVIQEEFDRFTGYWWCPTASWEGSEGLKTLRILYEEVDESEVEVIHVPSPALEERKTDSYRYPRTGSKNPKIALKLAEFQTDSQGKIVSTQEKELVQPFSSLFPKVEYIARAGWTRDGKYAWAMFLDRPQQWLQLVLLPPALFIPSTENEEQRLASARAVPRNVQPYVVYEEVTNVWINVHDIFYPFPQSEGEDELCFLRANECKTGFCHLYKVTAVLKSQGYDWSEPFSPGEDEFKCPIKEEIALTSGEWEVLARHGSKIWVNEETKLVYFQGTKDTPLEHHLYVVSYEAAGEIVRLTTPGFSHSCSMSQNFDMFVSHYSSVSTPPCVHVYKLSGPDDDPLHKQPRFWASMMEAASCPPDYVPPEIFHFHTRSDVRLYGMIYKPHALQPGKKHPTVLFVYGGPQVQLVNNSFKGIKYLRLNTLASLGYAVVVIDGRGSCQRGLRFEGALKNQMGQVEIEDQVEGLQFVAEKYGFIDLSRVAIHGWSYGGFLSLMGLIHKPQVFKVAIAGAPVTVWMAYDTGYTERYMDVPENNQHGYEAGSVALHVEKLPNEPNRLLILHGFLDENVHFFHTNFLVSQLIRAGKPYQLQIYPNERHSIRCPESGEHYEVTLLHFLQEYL
T3 sequence (P27487 29-766 limits assumed): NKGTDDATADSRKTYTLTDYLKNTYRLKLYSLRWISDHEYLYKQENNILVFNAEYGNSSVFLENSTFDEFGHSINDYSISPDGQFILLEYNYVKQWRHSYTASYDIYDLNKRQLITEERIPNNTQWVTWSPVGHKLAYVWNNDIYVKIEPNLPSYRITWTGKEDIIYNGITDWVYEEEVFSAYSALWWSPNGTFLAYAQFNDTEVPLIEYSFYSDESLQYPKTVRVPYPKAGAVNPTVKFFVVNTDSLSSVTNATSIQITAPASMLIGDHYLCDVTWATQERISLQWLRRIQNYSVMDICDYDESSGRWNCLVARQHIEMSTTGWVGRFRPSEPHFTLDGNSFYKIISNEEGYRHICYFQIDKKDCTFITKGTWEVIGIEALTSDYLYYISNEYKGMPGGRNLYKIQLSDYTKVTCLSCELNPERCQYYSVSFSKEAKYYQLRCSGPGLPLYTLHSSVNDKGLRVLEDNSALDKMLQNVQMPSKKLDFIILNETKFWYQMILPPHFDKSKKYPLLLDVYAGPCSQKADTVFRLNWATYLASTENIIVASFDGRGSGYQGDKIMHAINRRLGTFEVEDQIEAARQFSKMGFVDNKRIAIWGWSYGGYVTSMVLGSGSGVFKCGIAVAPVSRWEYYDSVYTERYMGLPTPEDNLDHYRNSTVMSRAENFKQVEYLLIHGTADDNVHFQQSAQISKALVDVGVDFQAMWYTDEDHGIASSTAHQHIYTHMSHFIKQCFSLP

binding result [1]: no binding
binding result [2]: no binding
binding result [3]: no binding (tested: 250 ng/mL)
binding result [4]: no binding (tested: 250 ng/mL)
binding result [5]: no binding (tested: 250 ng/mL)
B1: NI-206.82C2 (antibody, V domains shown)
VH: QVQLQQSGPGLVKPSQTLSLTCAISGDSVSSNSVTWNWIRQSPSRGLEWLGRTYYRSKWYNDYAVSVKGRITINPDTSKNQFYLQLKSVTPEDAAVYYCARDSSILYGDYWGQGTLVTVSS
VL: QAVLTQPSSLSASPGASASLTCTLPSGINVGTYRIFWFQQKPGSPPQYLLSYKSDSDNHQGSGVPSRFSGSKDASANAGILLISGLQSEDEADYYCMIWHSSAWVFGGGTKLTVL
notes: Recombinantly expressed as complete human IgG1 with a lambda light chain; HRP-labelled in the homologue and sandwich ELISAs, Cy5-labelled in flow cytometry; also called HRP-labelled 82C2; Cy5 labelled 82C2
